# According to the RNAGym collection of RNA variant scans (doi:10.1073/pnas.2313332121):
# B1: TPR t1 (parent)
# chain: GACCAAUCUGCCCUCAGAGCUCGAGAACAUCUUCGGAUGCAGAGGAGGCAGGCUUCGGUGGCGCGAUAGCGCCAACGUCCUCAACCUCCAAUGCAUCCCACCACAUGAUGAUGCCUGAAGAGCCUUGGUUUUUUG
# Variants of: B1
# Assay: polymerase ribozyme fitness, log enrichment relative to wild type (log ratio); higher = more active; in vitro selection for triplet polymerase activity
# Method in brief: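 After PCR construction and transcription, each subunit's mutant library from a heterodimeric triplet polymerase ribozyme was annealed with a biotinylated primer, the partner subunit and triplets. Incubation was frozen, at −7 °C, and extended constructs were gel-excised, bound to streptavidin beads and amplified by RT-PCR, in one selection round done in triplicate. Fitness is the logarithm of a genotype's enrichment divided by that of the wild type, from inverse-variance-weighted replicate averages of Illumina-sequenced inputs and outputs. The base of the logarithm is 2, and genotypes needed ≥10 input reads and ≥1 read per output.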
row,Variant,polymerase ribozyme fitness (log ratio)
1,C28U U55A G71C,-2.75
2,C20A G117U,-3.2
3,A50G G57U C79A C115A,-1.84
4,C12G G19A G93U U106A A111G C115A,-6.62
5,C56G C64G,-7.2
6,U59A G77A,-0.182
7,U38A U54G U112C G120A,-0.498
8,G93C G117A,-1.09
9,C22G G60U C85A,-4.53
10,G44C C70A,-2.37
11,C13G U87C A121C,0.326
12,C12G C94G A105C,-4.19
13,A43G A50G G60U A95G U132C,-3.96
14,C12G A74U C80U,-1.1
15,G58A C72G C82A,-0.468
16,U9G A37U C40U G45A C72U C104U,-0.789
17,G42A A83C,-1.87
18,G71U C124G,1.72
19,C28A A75G G120U U129G,-6.26
20,A6U A84U G110U,-1.45
21,G19A G36U,-3.84
22,C20U U38G C62G G120C,-4.8
23,G57U G77U G113A G127C,-2.59
24,A41U U130A,-2.03

row,Variant,polymerase ribozyme fitness (log ratio)
1,U109A U116C,-7.07
2,U9A G10C C73U C102G C114G C115G,-6.5
3,G39U C49A G71U G127A,-2.56
4,C70U A75U G77U A83U U106A C114U C123G U133G,-6.34
5,A83G C97U U109A,-5.36
6,U9G A27G A37U,-0.779
7,C49G G60C,-1.97
8,U9G C72U C102A G122A U125A,-1.75
9,G69U G117C,-2.27
10,G58U G60A G77U,0.541
11,G10A U33C A90G A118G,-6.66
12,C72U C123G,0.829
13,C20A C72U,-2.98
14,G63C G110A,-1.89
15,C12G U96A,-0.352
16,G58U G60C C88U A95U,-2.05
17,A43C G51U C56U G58A C80A C89G C101A G122U C123A G127A,-6.31
18,A27U G60U G128A,-4.65
19,U7A U9C C12U G57C,0.0479
20,A16U C102U,-3.23
21,C15A C40U U87C G93C,-3.02
22,U9C C40G G69A C101U,-2.3
23,A5U G44C C73U,-1.65
24,G52C C70A G117C,-5.92

row,Variant,polymerase ribozyme fitness (log ratio)
1,G47U G71U A119U C123A,-2.79
2,C28U,-1.69
3,C70G U125A,-2.85
4,G52A U78A,-0.123
5,C62U C76U,-0.133
6,C20A C28U G39U G71U C97U C123A,-6.92
7,G39U G60A,0.0157
8,G69U U78C C102U,0.0221
9,G48C G51U C53U,-4.86
10,U78C U130G,-0.922
11,C8A A27C U33G G36C G42U G110C G113C,-6.47
12,C73U G117U,-1.43
13,U9C A29U U129A,-2.08
14,U7C C62A C99G U112G U132C U134A G135U,-7.59
15,U126A,-1.69
16,C12U U32C G69U C76G G77U C80U A84G,-4.98
17,G45U C64U C79G C114U,-5.29
18,G69A U81A,-3.16
19,U7C G45U G110C,-5.16
20,C22G G110U U125G,-4.31
21,G63A A74U A95U,-3.67
22,A29U C73U C98U A111C,-3.36
23,C8A A26U C115U,-5.1
24,C70A C73U A111C,-2.13

row,Variant,polymerase ribozyme fitness (log ratio)
1,C22G A26C G39U A50G C72U U112C,-4.01
2,U54C U81C A95C,-0.789
3,U92A G120U,-2.93
4,G63A U112A C114G G122U,-1.75
5,C8A C79G,-1.65
6,C20U C53U U54A U125G,-2.55
7,A37G U59G,0.0397
8,C3U U81G,-4.04
9,C72U U78C C97U,-1.02
10,C12U G110U,-0.322
11,G93U G120C,-0.763
12,C13U A41C G52U G60C G120A U126G,-1.71
13,G10C A43G G44C C49U G52C C56G G77A,-6.25
14,C12U C53A G58C A119U,-0.505
15,U14G A50C C101A,-3.99
16,A41U G42U G93C,-3.1
17,A46C G60U,-0.736
18,A50U C72U U106C,-0.84
19,G47A C85U C101U,-2.15
20,C4U A100U G117U,-4.99
21,C11A G52C C56A,-2.98
22,C70U C98U U129G,-2.67
23,C99U A111G,-2.23
24,C4G A5C G61U A84C U109A U131G,-5.51

row,Variant,polymerase ribozyme fitness (log ratio)
1,A5G C64G G69A A83U,-4.33
2,C49U U54A U92C G120C G128A,-4.05
3,C40A G52A C73U C104U U126A,-3.9
4,A50U G71U,-1.94
5,U21C G42A C88U C89A,-3.87
6,A2U C94U C104U,-2.44
7,G17U C70U,-3.3
8,G47A G69C C86A C97U C115U C124G U125C,-5.52
9,C82U G127A,-1.24
10,C56G G69C A83C C104U G135A,-4.55
11,G10A U96G,-0.411
12,G45A A50U U130C,-0.0855
13,U9G C99U,-2.87
14,C72A A83G,-0.951
15,A6C A29U C56U C94A U112G,-3.35
16,C49A U55C G61C C104U,-2.02
17,C3U G48C G61U,-0.989
18,U81G C88U,-4.05
19,C64A G93C G117C,-6.1
20,G10U C49U,-0.491
21,C11G C56U C76G U106A A119U,-1.85
22,C12U G71A A111C C115A U131G U133A,-0.622
23,U7G G69U G122A,0.793
24,U9C C49A C86U C94A G113A,-1.52

row,Variant,polymerase ribozyme fitness (log ratio)
1,G69A A84U A91G,-6.33
2,C22A C49U C56A U78C G117U,-5.8
3,C4G U9G G23A G113C,-4.79
4,C22G U87A C114A,-2.89
5,U14A C114U,-5.22
6,G35C A43G G60A C62U C64G A84U C98U A111U A121U,-7.98
7,C4A U59C G69U C115U,-3.99
8,C56G U109A G113C,-5.42
9,C12U C15A A37C G52U U116G,-3.09
10,A43U G58U G113A,-2.63
11,G57A C76A,-0.895
12,U92C C99G G113U,-6.05
13,C101U,-0.0389
14,C15U A29U C40A A46C C123A,-5.62
15,C62U C72U U92C U96C,-2.18
16,A18U G113C,-3.57
17,C53G U92G A105U,-6.44
18,C20A C34A A41C G69U C73U,-5.14
19,C15U U78G C86U G113C,-5.8
20,C20G G61U C79A G117C C123A,-6.44
21,A6G G10A C20A U112G,-1.35
22,A91U C123G,0.354
23,U54A A108U,-4.71
24,C8G C13G U54C,0.758

row,Variant,polymerase ribozyme fitness (log ratio)
1,C22G U92G,-5.35
2,A5G G63C,-0.273
3,A18C C20U C53U,-1.72
4,U30C A46G A74G G113A,-2.75
5,G39U A43G,-1.75
6,G44U C114A U116G,-4.56
7,C40G C102A,-3.26
8,C11G C73U C80U,-0.636
9,U112G G117U,-1.25
10,U116C U129G U132C,-3.87
11,A46U U106G,-2.72
12,A6C C76A C79U,-0.8
13,G44A C89A,-1.04
14,G45A C98U,-1.75
15,U7A C82A U116C C123A,-2.73
16,C8G A18U G45A C79U A100U A103C C114U,-4.29
17,C56A G63C,-2.33
18,C4A C86A,-2.74
19,C70A U81C,-2.67
20,C3G G48C C89U U132C,-1.66
21,C3U G17C G117U,-6.24
22,C12G C15U G48A G61A U81G C123U,-2.3
23,C12A C89U C101A A111U,-5.17
